# Data reported in patent US20230157952A1, “METHOD FOR IMPROVING THE STABILITY OF A PHARMACEUTICAL COMPOSITION COMPRISING A HIGH PENETRATION DRUG, AND THE PHARMACEUTICAL COMPOSITION OBTAINED THEREFROM” (Techfields Inc., priority 2020, published 2023).
# Non-standard residues stand in square brackets, D forms with d. Arg(NO2) = N=C(NCCC[C@H](N)C(=O)O)N[N+](=O)[O-]
# Experiment: Effect of concentration on the stability of the solution (purity over time)
# Settings: for Purity (%) at Day 3 / Purity (%) at Day 7 / Purity (%) at hr 0 / Purity (%) at hr 24 / Purity(%) at Day 14 / Purity(%) at Day 28: 25° C.; for Purity at Day 30 / Purity at Day 90 / Purity at Day 180 / Purity at day 0: 1 equivalent sodium acetate in 50% ethanol at 25° C.
molecule,measurement,setting,value
"CCOC(=O)c1ccccc1 [Ethyl benzoate, reference compound]",Stability of common ester over the concentrations tested,0.01% to 10% (or higher) in 50% ethanol at 25° C.,very stable
same,Purity (%) at Day 3,0.01 wt % in 50% ethanol,97.4%
same,Purity (%) at Day 7,0.01 wt % in 50% ethanol,96.9%
same,Purity (%) at hr 0,0.01 wt % in 50% ethanol,97.8%
same,Purity (%) at hr 24,0.01 wt % in 50% ethanol,97.6%
same,Purity(%) at Day 14,0.01 wt % in 50% ethanol,96.1%
same,Purity(%) at Day 28,0.01 wt % in 50% ethanol,95.3%
same,Purity (%) at Day 3,0.1 wt % in 50% ethanol,97.6%
same,Purity (%) at Day 7,0.1 wt % in 50% ethanol,97.5%
same,Purity (%) at hr 0,0.1 wt % in 50% ethanol,97.9%
same,Purity (%) at hr 24,0.1 wt % in 50% ethanol,97.7%
same,Purity(%) at Day 14,0.1 wt % in 50% ethanol,97.2%
same,Purity(%) at Day 28,0.1 wt % in 50% ethanol,95.9%
same,Purity (%) at Day 3,1 wt % in 50% ethanol,97.7%
same,Purity (%) at Day 7,1 wt % in 50% ethanol,97.6%
same,Purity (%) at hr 0,1 wt % in 50% ethanol,98.0%
same,Purity (%) at hr 24,1 wt % in 50% ethanol,97.8%
same,Purity(%) at Day 14,1 wt % in 50% ethanol,97.5%
same,Purity(%) at Day 28,1 wt % in 50% ethanol,97.3%
same,Purity (%) at Day 3,3 wt % in 50% ethanol,97.8%
same,Purity (%) at Day 7,3 wt % in 50% ethanol,97.7%
same,Purity (%) at hr 0,3 wt % in 50% ethanol,97.9%
same,Purity (%) at hr 24,3 wt % in 50% ethanol,97.8%
same,Purity(%) at Day 14,3 wt % in 50% ethanol,97.6%
same,Purity(%) at Day 28,3 wt % in 50% ethanol,97.5%
same,Purity (%) at Day 3,5 wt % in 50% ethanol,97.8%
same,Purity (%) at Day 7,5 wt % in 50% ethanol,97.7%
same,Purity (%) at hr 0,5 wt % in 50% ethanol,98.0%
same,Purity (%) at hr 24,5 wt % in 50% ethanol,97.8%
same,Purity(%) at Day 14,5 wt % in 50% ethanol,97.6%
same,Purity(%) at Day 28,5 wt % in 50% ethanol,97.6%
same,Purity (%) at Day 3,10 wt % in 50% ethanol,97.8%
same,Purity (%) at Day 7,10 wt % in 50% ethanol,97.8%
same,Purity (%) at hr 0,10 wt % in 50% ethanol,97.9%
same,Purity (%) at hr 24,10 wt % in 50% ethanol,97.8%
same,Purity(%) at Day 14,10 wt % in 50% ethanol,97.7%
same,Purity(%) at Day 28,10 wt % in 50% ethanol,97.6%
H-Val-Pro-Gly-Pro-Arg(NO2)—OCH2CH3•HCl (H-VPGP[Arg(NO2)]-OEt; also: HCl salt),Purity at Day 30,0.01 wt %,55.5%
same,Purity at Day 90,0.01 wt %,22.2%
same,Purity at Day 180,0.01 wt %,0%
same,Purity at day 0,0.01 wt %,98.1%
same,Purity at Day 30,0.1 wt %,65.7%
same,Purity at Day 90,0.1 wt %,31.3%
same,Purity at Day 180,0.1 wt %,9.6%
same,Purity at day 0,0.1 wt %,98.2%
same,Purity at Day 30,1 wt %,91.1%
same,Purity at Day 90,1 wt %,77.3%
same,Purity at Day 180,1 wt %,58.6%
same,Purity at day 0,1 wt %,98.5%
same,Purity at Day 30,3 wt %,96.8%
same,Purity at Day 90,3 wt %,93.2%
same,Purity at Day 180,3 wt %,87.8%
same,Purity at day 0,3 wt %,98.6%
same,Purity at Day 30,5 wt %,97.3%
same,Purity at Day 90,5 wt %,94.9%
same,Purity at Day 180,5 wt %,90.5%
same,Purity at day 0,5 wt %,98.7%
same,Purity at Day 30,7 wt %,97.6%
same,Purity at Day 90,7 wt %,95.2%
same,Purity at Day 180,7 wt %,91.7%
same,Purity at day 0,7 wt %,98.7%
same,Purity at Day 30,8 wt %,97.7%
same,Purity at Day 90,8 wt %,95.2%
same,Purity at Day 180,8 wt %,91.6%
same,Purity at day 0,8 wt %,98.6%
same,Purity at Day 30,10 wt %,97.5%
same,Purity at Day 90,10 wt %,95.3%
same,Purity at Day 180,10 wt %,91.7%
same,Purity at day 0,10 wt %,98.6%
same,Purity at Day 30,15 wt %,97.7%
same,Purity at Day 90,15 wt %,95.3%
same,Purity at Day 180,15 wt %,91.8%
same,Purity at day 0,15 wt %,98.8%
same,Purity at Day 30,20 wt %,97.5%
same,Purity at Day 90,20 wt %,95.1%
same,Purity at Day 180,20 wt %,91.5%
same,Purity at day 0,20 wt %,98.6%
same,Purity at Day 30,30 wt %,97.5%
same,Purity at Day 90,30 wt %,95.1%
same,Purity at Day 180,30 wt %,91.6%
same,Purity at day 0,30 wt %,98.7%
same,Purity at Day 30,50 wt %,97.7%
same,Purity at Day 90,50 wt %,95.3%
same,Purity at Day 180,50 wt %,91.8%
same,Purity at day 0,50 wt %,98.7%
